Assay results reported in a protein production outcome set (Wang et al. 2014).

Experiment: label from the status in PepcDB records

Sequence | protein production
WSYEHLHLTNRIKLLYAPTFRDNELGMAKLHLDIAEMKQALGNEYQLILKLHPSISNDLEKLDDDFVIYVDKETPIETLLPVVDILITDYSSIPFEFALLQKPMIFFTYDLTEYNNARGLSDGFLETIPGPHVFTTTELIEVIQNNTFDLEKVRLFAEKWNKYSDGFSSERFVSFLKEQLEK | failed
MTVLYKGSLKQNNDPFHVTLLSKEHIEQILFLQNVVVEGLEDKSRLQPLSQEEFQYILEGNGMMIGAFIKNELIAFRALLVPPIDDEHLGLDIGLPESELHRVIYQEISNVHPNCRGNGMQKILATVIMDELQKENGKYDYVCCTVAPFNIPSLKDKFSQGMEIAALKEKYGGSMRYVFVKELREDKEKDWTEIKSVPMNNAGGQQALLSEGYRGYEMEKVDEDFVVKFGR | failed
MLGAAPENCTVNELNPDRANQLRSQGFTVTEQDATAYLPNQLYDVVIMNPPFGRVKGKRFRLAGEMGTTSQIDQAIALHSLQAMKDDGRAVLILG | failed
MNRNGQRRFLEFFAGGGMARLGLGADWACAFANDFDPVKAATYRANFADAGKHFQEGDVFALSAERLPDADLAWASSPCQDFSLAGARAGLAGGRSSAFFGFWSLMRSLSAEGRAPSVIVIENVVGLLTSHGGADFTALCQALHEEGYRFGALEIDAGAFVPQSRPRVFVVATRNPPGDLVGSSAFHTRAVREAAARLPADLQASWVWWGAPSPPARNTDLASMLEPDDRAVW | failed
MEELKTKGEHGNEEAKKAPATGETETVEKNVAIRRTSTASSEQDLDTFLLGDLEDSDEAPDDGDGSLEDDFDKIGNSDVEDEKQSSKATTNAGNEVSC | failed
MTIAHISDLHFGRIADSGVVEALLDEINAAGIDLVAVSGDLTQRARPAEYRAARNLLDALGPPTLVVAGNHDVYPWWRPLKRLRTPLERYRQFITEDLAPTFEAGGVAALGLTSAYGPSIKGGRIGPADRAAMRAFFSGTGDDRFKVLVVHHQLHPTAIGPISPHPVARQAQQTLAVAGEVGIDLILCGHLHISAIQPLEIIPGTPRIVVASAGTATSNRWREPTGPINFYNVVSVEPEAFSVEERRYVPDEGRFVRDGVTRFDHAG | failed
MADKEKKKKESILDLSKYIDKTIRVKFQGGREASGILKGFDPLLNLVLDGTIEYMRDPDDQYKLTEDTRQLGLVVCRGTSVVLICPQDGMEAIPNPFIQQQDA | failed
MNKFLTTIIIKSKCSLLFISSINDSFIYIIRRMINANWSNFTLSWSIARNYWYYFRKCLDGRPFTVFLTSYQIFSTSFCKGNMFYVISSLIIFIQIMNCFLEHHHHHH | failed
MPRLTTRALTRCLLATLALLCIALPALAAAPITPLRVMSFNVRVPVDTDGDKRWQARRGAMVSVIKQTHPDVFGTQELVSEQAGYLAAQLPNYRWFGQGRRGDDSDEHMGVFYDTRTLNVVESGNFWLSDTPEVAGSITWGNVLPRMVTWALFERRSDKRRFYLFNTHFPYRDEDEPAREHSARLILSRIAQLPADIPVVLTGDFNSDPDKITYPTLTAVLGDARARAPKRSGPENTFQDFSTHPTRRIDWILFRGLTPTQFTTLDDRPGGVLPSDHYPVLAEFAWPR | failed
MSRSALSFAVFLAVVLSILGGMHAYLWLRLVRDPGLPEPWRRTGTVLLALLAVAIPVGMFSVRLASGWAARWLPVAAFTWLGLAFILFCAVAAIDLARLSAQLALFMGDWLRQVPDPPADPGRRLFVARAVAGGAVIAAGGSAALAFRSATGPAEIHEVAVRLDRLPPALSGLTIAQISDLHVGPAIREREVRRVVEQTNALRPDVVAITGDLVDGSVRELGHAVAELARLRARHGVFFVTGNHEYYSGVDAWVAELQRLGIRVLRNERVTVGDAGASIDLAGVDDWSSGQFGNGHGMNLPRALDGRDPDRSLVLLAHQPRAIGEAVRAGVELQLSGHTHGGQIFPFNLLVRAAYPYVKGLYPHAEGSAHGQIFVSRGTGYWGPPMRLGSPPEIARIVLT | failed
GDFGRHSITSGGSGGGGFRQRGSSGSSSRHTERGYSSGRSGASSYNGREGGGSGFNRREVYGGGRDSSRYSSGSSASYGRTGGQSAGRFRSRSPVGNHRF | failed
MKPALHAIDATLPAPPTYTPAGNECALFEHAWKRRVPLLLKGPTGCGKTRFVAHMAARLGLPLFTVSCHDDLTAADLTGRYLLKGGETVWVDGPLTRAVRQGGICYLDEVVEARKDVAVVLHPLADDRRVLPLERTGEELQAPPHFMLVVSYNPGYQSLLKALKPSTRQRFAAIEFGFLAPEQEIAVVAAESGLPSERVAPLVALAGRLRKLKGHDLEEGVSTRLLVYCASLISEGLPVRDAVLAGLIEPLTDDADVKAALIEVAGVVIGLEHHHHHH | not failed
MASGSTQVKYLGIYQKMKQQILDGEYKINEKIPSSPVLAEEFDVSVLTIKKALDLLVRDGYIIRRRGSGTVVQDWRQQEKARMIQTLTGTKAVYGSEVESKIIEFTIVGADEIIAEKLGISVGDFVYKIIRLRIIHSIPTIMEHTWMPISVIPGVEVSVLEESIYSHIQNKLGLQVGTSVVRVKGIRPDDKEKQFMNLTNQDFLMRVEQVAYLTDGRTFEYSYADHLPETFEFETVITAKSYKEA | not failed
MDVLTDQDVQKFRDEGYLVLEGLLSPEECDALRRRMSEIIESMDVPEHCRTQFSTDHDEQLKTQGNADYFITSGDKIRFFFEKGVFDDKGEFVVPKEQSLNKIGHALHAYEPLFKRVTHSPKVQNICKKLELINPVILQSMYIFKQPGIGGEVTPHQDATFLYTQPLGRVMGVWVALEDAMQENGCLWFIPGSHNDGITRRMVRTPKGTFPLTDFIGREKDYDDKLFVPAPVKKGGAVLIHGEVVHRSAANTSDASRHVYTFHIMESENTVWSPENWLQATEELPFPSLYT | failed
MTKEKSTVPRLRFPGFTDAWKQRKLGEVADFSIKTNSLSRDKLSSYFYEVQNIHYGDILTKYDAILDVCNKELPSIIGSTISDFADALLSEGDIVFADAAEDSTVGKAIEVRNFKGKNVVSGLHTIVARPKVSYAPYYLGYLINSTAYHNQILPLMQGTKVSSISKANLKSTTVVFPTLPEQEAIGSFFSDLDQLITLHQRKLDDVKELKKALLQKMFPKGNGNDFPELRFPEFTDAWKQRKLGEFMKESKILGSKGDIARKLTVRLWGRGVVSKKEIYSGSSATQYYIRKSGQFIYGKLDFLNQAFGIIPPELDGYESTLDSPAFDLLKGINGQFLLEFVSRKEFYYYQGNIANGSRKAKRIHTETFLGMPISLPTLPEQEAIGSFFSDLDQLITLHQRK | failed
MDPYFELRLSELKSIPVVTWLQFSIDNAREPGILVQSGQIWALLPPELTEKTRCFAIELGNECMRLKDYDNDDGKRVWLSDDELTRFIEQAETPHQRLAFLLAGRVGLRRSEIIEVCPQDLVDGPTGDHIRVWESYAKRDKYREPPVPQEVVTIAETLAYQQDDDEPLLDVAGSTVYRWVRRAADELEEETGDRGWQYLDVHDLRRTWGTYLLEQGVIPSVVMSFGGWEDWDTFRKHYLGEFSPEAIRRERGKVDFLEGGDESAEVVHPGTMPPASHHTAD | failed
NKSIRMTPSQVAFEIRGTLLPGEVFAICGSCDALGNWNPQNAVALLPENDTGESMLWKATIVLSRGVSVQYRYFKGYFLEPKTIGGPCQVIVHKWETHLQPRSITPLESEIIIDDGQFGIHNGVETLDSGWLTCQTEIRLRLHYSEKPPVSITKKKLKKSRFRVKLTLEGLEEDDDDRVSPTVLHKMSNSLEISLISDNEFKCRHSQPECGYGLQPDRWTEYSIQTMEPDNLELIFDFFEEDLSEHVVQGDALPGHVGTACLLSSTIAESGKSAGILTLPIMSRNSRKTIGKVRVDYIIIKPLPGYSCDMKSSFSKYWKPRIPLDVGHRGAGNSTTTAQLAKVQENTIASLRNAASHGAAFVEFDVHLSKDFVPVVYHDLTCCLTMKKKFDADPVELFEIPVKELTFDQLQLLKLTHVTALKSKDRKESVVQEENSFSENQPFPSLKMVLESLPEDVGFNIEIKWICQQRDGMWDGNLSTYFDMNLFLDIILKTVLENSGKRRIVFSSFDADICTMVRQKQNKYPILFLTQGKSEIYPELMDLRSRTTPIAMSFAQFENLLGINVHTEDLLRNPSYIQEAKAKGLVIFCWGDDTNDPENRRKLKELGVNGLIYDRIYDWMPEQPNIFQVEQLERLKQELPELKSCLCPTVSRFVPSSLCGESDIHVDANGIDNVENA | not failed
MAEYEDRYWTSSDGLRLHFRAYEGDISRPPVLCLPGLTRNARDFEDLATRLAGDWRVLCPEMRGRGDSDYAKDPMTYQPMQYLQDLEALLAQEGIERFVAIGTSLGGLLTMLLAAANPARIAAAVLNDVGPEVSPEGLERIRGYVGQGRNFETWMHAARALQESSGDVYPDWDITQWLRYAKRIMVLGSSGRIAFDYDMKIAEPFEAPVGATPQVDMWPLFDALATRPLLVLRGETSDILSAQTAAKMASRPGVELVTLPRIGHAPTLDEPESIAAIGRLLERV | not failed
RTAVMIMNGNQLVGFFCLHVGQGPLSYGETEVNTILLRALSVDDRFKHQRVASDALAELPRYLASHYPMIQTILLAVNHANHVAQHLY | failed
PKLTRVDIAHDDFEGKHISVDWGNMQDGLGGFQLGNRAPNIEHKGNWRRPNGKGRTLCIGSRDSGKYLRLYEKGRAEGDPNDNWQRAEVEFKSIDRVLPFDMLLAPSEFFIAAYPCFRDLAQHLQPERIETISKTAQINFQTAIENLKHQYGKYINIFKEVFEPEELINLISCSDPLAYPKRLDHVLITARRM | failed
SVPKRQRIRKLQIRNIPPHLQWEVLDSLLVQYGVVESCEQVNTDSETAVVNVTYSSKDQARQALDKLNGFQLENFTLKVAYIPDEMAAQ | not failed
MSDTPYSLKGPARPTASTRNGKGRQDARWAERRREAAIAKLKAELAAQAALIAGQEVALAHSRKIFDRASVAARIGVWECSLPGEQLHWTDVVYDLFDLPRGAALDRSEIIKCYPAESRKALDSLRSRAIAERSGFTLDAEITTFAGHSRWIRITATVECEADVPVRIFGMKQDITEEKILSDRMRYLAEFDPMTGLANRARFQARLAQPDASRPLGALLLIDLDGFKAVNDTFGHVVGDECLKAAAERLAEGCGEADLVARVGGDEFAVLLGSHLDRAAVSGVAREIIEGMGKPVVVRGQSLRLGASVGIAFAGQGAPCDLFAQADTALYAAKAAGRNTFRIFKAEAGGKDRSAAA | failed
MEEWPALQWSQGTPASGPALQALEEYAFVPRDDESRQGIRTDALLVIRDGRLLYERYAGATGPQTPHLAWSASKSLLAVLLGVAFGEGRFQLQDPAAKFYPPLEAHPDITLADLLHWASGLDWQEDYEYAPLNSSVVAMLYTRGHRDMAAFTVQQAASGPPGQVFRYSSGDSNLLAASLRGMVGEGQYADYPWRALFEPLGITQAVWERDAAGTFVASSYLYLTARDLARIGLLMQRDGRWRDRQLLPKAWVEFCRTPFRGYRANQDVAVAGGHWWLNREVDGAPRPWPDAPADTYAALGHWGQALYVLPAQRLVIVRYGDDRDGSYQHNELLKRVLAAFATPEQPLEHHHHHH | failed
MTKSYDVWWQKGQESDDDMARDHQEAWERTIEMLDTSDIKGKTILDVGCNQGGFLRKLYDTTPFKEGVGIDLARLSLEKAETLKGERPLTYYLTDKPQETNRTFDTAVSTSVLYLIEDIPQHAQDLKEVLKPGGVYYASFADLTNNPSRQFMDDTINQYGATPSQNHSLKHIVDSFVDAGFEVAVMKEPVPDVIDLTHYSDFYLSPNDYLQTLYEESFLIKASVKEGIGKLEHHHHHH | not failed
LTSSNALRGDAHSRLAAHRGLLERTSRTTRVAGILRDAIIDGTFRPGARLSEPDICAALDVSRNTVREAFQILIEDRLVAHELNRGVFVRVPTAEDITELYICRRVVECAGVNGFDPATGDLSRVAEALDLADERYAVEDWTGVGTADIHFHSALASLNNSNRIDELMRSVWNEARLVFHVMDDAHRFHGPYLTRNHEIYDALAAGNTEAAGQLLKTYLEDAEAQILGAYRPVSG | not failed
